The record followed here is patent publication US20240182556A1 (OPSIDIO, published 2024).

Residue numbers refer to the chain shown, from its start. Names may count otherwise.

What is called Kd is a measure of binding affinity in units of concentration.

For assay [1], the target named is T1, PE9413, C-terminal biotinylated peptide mapping on Exon6 of the SCF molecule (SCF248) (C-terminal biotin).
T1 construct: also called C-terminal biotinylated PE9413; C-ter PE9413
T1 peptide: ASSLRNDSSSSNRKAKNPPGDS
The assay is described as follows: yeast-displayed scFv, flow cytometry titration of biotinylated peptide (FIG. 16D). The procedure:
Yeast display methods were conducted as described by Ferrara et al. Briefly, cells were induced in induction media overnight at 20° C. 10⁵ induced cells were washed twice with wash buffer (PBS supplemented with 0.5% BSA) and incubated at room temperature with the biotinylated antigen diluted in PBS. To assess binding of the scFv, a C-terminal biotinylated peptide mapping on Exon6 of the SCF molecule was used (referred to herein as “PE9413”). […] The induced yeast population was stained with biotinylated PE9413 at different concentrations ranging from 50 nM to 2 μM (0 nM, 50 nM, 100 nM, 250 nM, 500 nM, 750 nM, 1000 nM, or 2000 nM). Volumes and incubation times were carefully adjusted according to parameters described in [3]. After the incubation with the target peptide, the yeast cells were washed twice with cold wash buffer and subsequently incubated at 4° C. for an additional 30 minutes with fluorescently labelled streptavidin (Streptavidin-AlexaFlu633), to detect binding of the biotinylated PE9413, and with the labelled anti-SV5 (anti-SV5-PE), to detect the scFv display levels on yeast cells. Following 2 washes with cold yeast wash buffer, the cells were resuspended in cold PBS and analyzed in the flow cytometer (FIG. 1).
The FACS sorted population was sorted kinetically to find clones with an improved Koff compared to the parenteral scFv. […]

The target of assay [2] is T1, PE9413, C-terminal biotinylated peptide …. Put plainly: yeast-displayed scFv, flow cytometry titration of biotinylated peptide.
The target is the same in assay [3]. The assay is described as above. The procedure:
The binding of the selected 48 clones described above to 170 nM of C-terminal biotinylated PE9413 was evaluated. The 24 clones with the highest binding signal were further evaluated for binding affinity. Each clone was incubated with increasing amounts of biotinylated PE9413, and stained with a fluorescently labeled anti-streptavidin antibody. Binding of the clone to PE9413 was analyzed by flow cytometry. A plot of concentration of PE9413 versus the median fluorescent signal of the yeast cell population that bound to PE9413 was used to estimate the binding affinity (KD) of each clone to C-terminal biotinylated PE9413. […]

Assay [4] shares this target. Described as above. The procedure: The binding of the selected 48 clones described above to 170 nM of C-terminal biotinylated PE9413 was evaluated. The 24 clones with the highest binding signal were further evaluated for binding affinity. Each clone was incubated with increasing amounts of biotinylated PE9413, and stained with a fluorescently labeled anti-streptavidin antibody. Binding of the clone to PE9413 was analyzed by flow cytometry. A plot of concentration of PE9413 versus the median fluorescent signal of the yeast cell population that bound to PE9413 was used to estimate the binding affinity (KD) of each clone to C-terminal biotinylated PE9413.

The target in assay [5] is T2, N-terminal biotinylated PE9413 (not fully specified; N-terminal biotin).
T2 construct: also called PE9411; N-ter PE9413
T2 peptide: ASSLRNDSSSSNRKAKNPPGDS
The assay is described as follows: yeast-displayed scFv, flow cytometry titration of N-terminal biotinylated peptide. The procedure:
The affinity of the 12 best clones for the N-terminal biotinylated target peptide […] was also evaluated. Each clone was incubated with increasing amounts of N-terminal biotinylated PE9413, and stained with a fluorescently labeled anti-streptavidin antibody. Binding of the clone to N-terminal biotinylated PE9413 was analyzed by flow cytometry. A plot of concentration of PE9413 versus the median fluorescent signal of the yeast cell population that bound to PE9413 was used to estimate the binding affinity (KD) of each clone to N-terminal biotinylated PE9413. The tested clones were confirmed to have improved affinities over the parental antibody 5H10 against the target sequence PE9413, regardless of the biotinylation modification, as reported in Table A3 and FIG. 12.
For orientation: Flow cytometry measures light scatter and fluorescence of single cells or particles in a stream.

B1: parental humanized 5H10 VK3/VH1 scFv (VH-linker-VL-SV5tag) displayed on yeast (scFv, V domains shown)
VH: QVQLVQSGAELKKPGSSVKISCKSSGYAFSSYWMNWVKQRPGQGLEWIGQIYPGDGDTHYNGKFKGKATLTADKSTSTAYMELSSLTSEDSAVYFCSSSNWVGSYWGQGTLVTVSS
VL: DVVMTQSPLSLPVTLGQPASISCKSSQSLLESDGKTYLNWLQQRPGQSPRRLIYLVSRLDSGVPDRFSGSGSGTDFTLKISRVEAEDVGVYYCWQGTHLPQTFGGGTKVEIK
notes: also called parental scFv; parental antibody; not shown: linker; SV5 tag
For the molecule B1, the results for the Kd in assay [1] and in assay [2] were 232 nM and 174 nM, respectively.

B2: H83P scFv displayed on yeast (scFv, V domains shown)
VH: B1 VH with Y32Q, T58I, G62D
VL: B1 VL with K35N, S57D, H98D
notes: Aga2-anchored, VH-VL orientation; not shown: linker; SV5 tag
B2: the Kd in assay [3] was 4.08 nM; in assay [4] it was 4.08 nM; in assay [5] it was 5.3 nM.

B3: H74P scFv displayed on yeast (scFv, V domains shown)
VH: B1 VH with Y32Q, G54E
VL: B1 VL with S32E, K35N, S57D, S61L, T97S
notes: as for B2
For the molecule B3, the equilibrium dissociation constant (Kd) in assay [3] amounted to 3.84 nM; in assay [4], 3.84 nM; in assay [5], 4.9 nM.
